Experimental data as given in the RNAGym collection of RNA variant scans (doi:10.7554/elife.80360).

B1: Hairpin Ribozyme (parent)
chain: GUCCUCUUUCACGUGCGCGUGAAAGAGAGAAGUGAACCAGAGAAACACACGUUGUGGUAUAUUACCUGGUA

Variants of: B1
Assay: self-cleavage, relative activity (ratio to wild type); higher = more cleavage; co-transcriptional

Variant	self-cleavage
G21U C46G	0.0824
G21U C48A	0.122
G21U C48G	0.132
G21U C48U	0.101
G21U C65G	0.257
G21U C65U	0.234
G21U C66A	0.236
G21U C66G	0.123
G21U G25C	0.342
G21U G25U	0.461
G21U G27A	0.25
G21U G29A	0.142
G21U G29U	0.106
G21U G32A	0.18
G21U G32C	0.145
G21U G34C	1.08
G21U G40C	0.122
G21U G42C	0.36
G21U G51A	0.822
G21U G54A	0.582
G21U G54C	0.438

Variant	self-cleavage
G21U G54U	0.329
G21U G56A	0.178
G21U G56U	0.147
G21U G57C	0.176
G21U G68C	0.187
G21U U33A	0.242
G21U U33G	0.127
G21U U52G	0.661
G21U U55G	0.2
G21U U62C	0.272
G21U U67G	0.36
G21U U70A	0.791
G21U U70G	0.687
A22C	0.848
A22C A24C	0.233
A22C A26G	0.557
A22C A28G	0.807
A22C A31C	0.16
A22C A31G	0.642
A22C A31U	0.108
A22C A35C	0.895

Variant	self-cleavage
A22C A35G	0.679
A22C A35U	0.746
A22C A36G	1.05
A22C A39U	0.461
A22C A41U	1.06
A22C A43G	0.249
A22C A44G	0.135
A22C A45G	0.15
A22C A49G	0.512
A22C A61C	0.3
A22C A61U	0.204
A22C A71C	1.26
A22C C37A	0.25
A22C C37G	0.368
A22C C37U	0.435
A22C C38A	0.124
A22C C50A	0.22
A22C C50G	0.126
A22C G27C	0.123
A22C G29A	0.0644
A22C G29U	0.131

Variant	self-cleavage
A22C G40A	0.242
A22C G51A	0.93
A22C G51C	0.769
A22C G56A	0.165
A22C G57C	0.117
A22C G57U	0.162
A22C G69C	0.366
A22C U33G	0.0647
A22C U52A	0.821
A22C U55A	0.217
A22C U58G	0.575
A22C U62C	0.196
A22C U63A	0.288
A22C U67G	0.204
A22G	0.871
A22G A23G	0.945
A22G A26G	1.09
A22G A28C	0.689
A22G A28U	0.673
A22G A35C	0.715
